Eleven sequences from the supplement of paper PMC9170038 can be followed below.

The data set has as its system MS2 coat protein. Kind of data set: apparent KD of MS2 coat protein; designed switch direction (-1 OFF switch, 1 ON switch): -1; higher = weaker reporter binding. A digest of the protocol: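 Stalled E. coli RNA polymerase transcribed designed RNA switches on Illumina chips, which were then titrated with SNAP-549-labelled MS2 coat protein, doubling from 0.7 or 1.5 nM to 3 µM. Steps lasted from 0.8–1.5 h at the lowest concentration to 10–20 min at the highest. The apparent KD is each design's median over clusters of curve-fitted normalised fluorescence.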

Where [1] appears, read: input ligand: microRNA oligo, concentration not stated.

Turning to “UAUUAACAAGCGAGAUCCCACAUGAGGAUCACCCAUGUGCUCGUCUUAUAAGGUACUGUGACGAUAGUCACGGUACC [Mat - Sensor, turn-off var - Eli Mod - D3] (Eterna round: R97, puzzle: Sensor, turn-off variant 1)”, the “apparent KD of MS2 coat protein” value by setting is: (input ligand: FMN 200 uM) 14.5 nM; (input ligand: none) 13.8 nM.

For the sequence “AGUCAGGCGGUAGGAUAUCCAUAUCGAGUGACCCUUUCAUAACAUGAGGAUCACCCAUGUCGGUGGGAGAAGGGCCGUAAGGCA [Mat - Exclusion NG 2 - Mod of JL - D69] (Eterna round: R96, puzzle: Exclusion NG 2)”, the “apparent KD of MS2 coat protein” value turned out to be 53.6 nM (input ligand: FMN 200 uM), 30.5 nM under setting [1] and 41.1 nM (input ligand: none).

Regarding “GUAACAACUAGAGGAUAUCAGCACGAUUAGUGCUGAGAAGGCUAGAGUUACAUGAGGAUCACCCAUGUCUAGAGAUCAUUAAUU [ENG1/13-A1] (Eterna round: R96, puzzle: Exclusion NG 1)”, the “apparent KD of MS2 coat protein” value came to 155 nM (input ligand: FMN 200 uM), 53.2 nM under setting [1] and 79.7 nM (input ligand: none).

In the case of “ACAUGAGGAUCACCCAUGUUAGGUUGGUUUUCUCCGGCUGUUGAGGAUAUAGUCCGGUAUCCGCGCUAGAAGGUGAGGGUUGGC [Aenatbe mod 9] (Eterna round: R96, puzzle: Exclusion NG 3)”, the “apparent KD of MS2 coat protein” value is, setting by setting: (input ligand: FMN 200 uM) 61.9 nM; under setting [1], 60 nM; (input ligand: none) 64.9 nM.

For the sequence “UCACGGCUCGGAGGAUAUGACACAUGAGGAUCACCCAUGUGUGUAAGCCAAUAAACCUACAAAUGUCAGAAGGCCGCGCCUCAU [Eternabot solution 9] (Eterna round: R96, puzzle: Exclusion NG 2)”, the “apparent KD of MS2 coat protein” value under setting [1] amounted to 10.8 nM.

Regarding “AGAUGGCGAGGAUAUACAUGAGGAUCACCCAUGUGAGAUAAGAAAGUGAGGAAGAAAAGUAGAAGGCGCUGUCA [Mat - Exclusion 3 - Mod of Salish D12] (puzzle: Exclusion 3)”, the “apparent KD of MS2 coat protein” value runs as follows: (Eterna round: R95, input ligand: FMN 200 uM) 281 nM; (Eterna round: R95, input ligand: microRNA oligo, concentration not stated) 58.6 nM; (Eterna round: R95, input ligand: none) 58.4 nM.

Take “AUACCACGAGGAUAUCGUCUAUUCCACAUGAGGAUCACCCAUGUUAUCCAUGUUUCGUUUCGAGAAGGCGUGGGUU [JR_E5_Sub074] (Eterna round: R96, puzzle: Exclusion 5)”: the “apparent KD of MS2 coat protein” value was found to be 50.8 nM (input ligand: FMN 200 uM), 38.2 nM under setting [1] and 51.6 nM (input ligand: none).

On to “AUGUACCGAAGAAGUUGUAACAUGAGGAUCACCCAUGUCGAAGUGAGGACAGGGAAGAGAAGCUGUGCUCGUCAUAG [Eternabot (L2) Solution 17] (Eterna round: R97, puzzle: Sensor, turn-off variant 1)”, for which the “apparent KD of MS2 coat protein” value runs as follows: (input ligand: FMN 200 uM) 71.6 nM; (input ligand: none) 77.9 nM.

For the sequence “GUGGAACAAGGAUAUCUAACCUCGGACAUGAGGAUCACCCAUGUAUGUCUCAAGAGACCUAGAGAAGGUGUUCGUG [Eternabot (L1) Solution 32] (Eterna round: R97, puzzle: Exclusion 5)”, the “apparent KD of MS2 coat protein” value reads like this: (input ligand: FMN 200 uM) 50.8 nM; (input ligand: none) 30.7 nM.

“UAUUGGAUAGGAUAUACAUGAGGAUCACCCAUGUGGACGGCUAAGCCUACCGCGCAGAGUAGAAGGGUCGGGUG [Eternabot (L1) Solution 66] (Eterna round: R97, puzzle: Exclusion 3)”: the “apparent KD of MS2 coat protein” value worked out at 161 nM (input ligand: FMN 200 uM) and 155 nM (input ligand: none).

Turning to “GCGCCAUCGUGAGAUGGCGUAUUUACAUGAGGAUCACCCAUGUAGGAUAUCGAUUGCUUUGCAGUCGAGAAGGGCAUGAUAAGU [JL ENG3 3.78] (Eterna round: R96, puzzle: Exclusion NG 3)”, the “apparent KD of MS2 coat protein” value (input ligand: FMN 200 uM) turned out to be 72.5 nM, the “apparent KD of MS2 coat protein” value under setting [1] came to 37.3 nM and the “apparent KD of MS2 coat protein” value (input ligand: none) was 54.5 nM.
